We go through 13 molecules from patent US20240327505A1 (published 2024).

Assay [1] concerns the target SARS-CoV-2 spike S2 protein (SARS-CoV-2, UniProt P0DTC2 686-1213).
Assay [2] deals with SARS-CoV-2 Spike (S) trimer (SARS-CoV-2, UniProt P0DTC2 16-1213). The experiment in a line: ELISA on coated S trimer, 1:50. A general note: ELISA stands for enzyme-linked immunosorbent assay.
A further assay addresses SARS-CoV-2 S2 protein (SARS-CoV-2, UniProt P0DTC2 686-1213).
For assay [3], the target named is SARS-CoV-2 spike receptor-binding domain (RBD) (SARS-CoV-2, UniProt P0DTC2 319-541).
Assay [4] concerns the target SARS-CoV-2 spike S1 protein (SARS-CoV-2, UniProt P0DTC2 16-685).

B1: AB-009214 (antibody, V domains shown)
VH: QVQLVESGGGVVQPGRSLRLSCAASGFTFSSYGMHWVRQAPGKGLEWVAVIWYDGSNKYYADSVKGRFTISRDNSKNTLYLQMNSLRAEDTAVYYCARDEPPSYYGSGSRFDYWGQGTLVTVSS
VL: SYELTQPPSVSVSPGQTARITCSGDALPKKYAYWYQQKSGQAPVLVIYEDSKRPSGIPERFSGSSSGTMATLTISGAQVEDEADYYCYSTDSSGNHWVFGGGTKLTVL
For orientation: Kd means a measure of binding affinity in units of concentration. Read a high Kd as lower affinity. Molecule B1 gave a Kd in assay [1] of 23.2 nM. Moreover, the “OD 450 nm” value in assay [2] was found to be 0.691 OD.

B2: AB-009343 (antibody, V domains shown)
VH: QAQLVESGGGVVQPGRSLRLSCAASGFTFNNHGMHWVRQVPGKGLEWVAVISYEGSKKDYADSVKGRFSISRDNSKQTVYLQMNSLRVEDTAVYYCAKDAAIFMIYPSRYFDLWGRGTLLTVSS
VL: SYELTQPPSMSVSPGQTASITCSGYILGDVSASWYQQKPGQSPVLIIYQDTKRPSGIPDRFSGSDSGNTATLTISGTQATDEADYYCQAWDSRTHVVFGGGTKLTVL
Consider B2, for which the “OD 450 nm” value in assay [2] stood at 0.459 OD.

B3: AB-009273 (antibody, V domains shown)
VH: QVQLVQSGAEVKKPGSSVKVSCKASGGTFSSYAISWVRQAPGQGLEWMGGIIPIFGTANYAQKFQGRVTITTDESTSTAYMELSSLRSEDTAVYYCARVGVYDSSGYYFDYWGQGTLVTVSS
VL: EIVLTQSPATLSLSPGERATLSCRASQSVSSYLAWYQQKPGQAPRLLIYDASNRATGIPARFSGSGSGTDFTLTISSLEPEDFAVYYCQQRSNWPPRLTFGGGTKVEIK
What is called koff is the rate constant with which the complex falls apart. A low value points to a long-lived complex. Usually kon stands for the second-order rate constant of association. In the assay with SARS-CoV-2 S2 protein, B3 gave a Kd of 6.87 nM, a koff of 0.000148 s⁻¹ and an on-rate (kon) of 21500 M⁻¹ s⁻¹.

B4: AB-009291 (antibody, V domains shown)
VH: EVHLLESGGGLVQPGGSLRLSCAASGFTFTTYAMFWVRQAPGKGLEWVSAINAGGAKTHYADSVRGRFTISRDNSKSTLYLHMDRLRVGDTAIYYCAKVPSYIYDSRDDYLDFWGQGTLVTVSS
VL: EIVLTQSPATLSLSPGERATLSCRASQSVSSYLAWYQQRPGQAPRLLIYDASSRATGIPVRFSGSGSGTDFTLTISSLEPEDFAVYYCQQRSDWPLLTFGGGTKVEIK
In assay [1], B4 came in with a Kd of 0.0174 nM, a koff of 3.28e-07 s⁻¹ and a kon of 18900 M⁻¹ s⁻¹. Further, the “OD 450 nm” value in assay [2] was 2.26 OD.

B5: AB-009083 (antibody, V domains shown)
VH: EVHLLESGGGLVQPGGSLTLTCAASGFSFGNYVMGWVRQAPGKGLEWVSSIFGSGANPHYGGSVKGRFTISRDNSQNTLFLQMDSLTAEDTAVYYCARDGGTMVGGIITGGFNYFDSWGQGTLVTVSS
VL: EIVLTQSPASLSLSPGGWATLSCRASRSIGNSLAWYQQRPGQAPRLLIYDASNRATGIPARFSGSGSGTDFTLTISSLEPEDFAIYYCQQRNSWPPLYTFGQGTKLEIK
Regarding B5, in assay [1], the Kd is 0.164 nM, the koff came out at 4.95e-07 s⁻¹ and the kon came out at 3010 M⁻¹ s⁻¹. Also, the “OD 450 nm” value in assay [2] was found to be 0.249 OD.

B6: AB-009080 (antibody, V domains shown)
VH: QVQLQQWGAGLLKPSETLSLTCAVYGGSFSGYYWSWIRQPPGKGLEWIGEINHSGSTNYNPSLKSRVTISVDTSKNQFSLKLSSVTAADTAVYYCARGLPVTTFYYYYYGMDVWGQGTTVTVSS
VL: not shown
In assay [1], B6 came in with a Kd of 0.111 nM, a koff of 2.79e-07 s⁻¹ and an on-rate (kon) of 2520 M⁻¹ s⁻¹. For the same molecule, in assay [2], the “OD 450 nm” value is 0.166 OD.

B7: AB-009251 (antibody, V domains shown)
V domain 1: QVQLVQSGAEVKKPGASVKVSCKTSGYTFTTFYIHWVRQVPGQGLEWMGIINPDGGSTNYAQEFQARVTMTTDTSTSTAYMELSSLRFEDTAVFYCATSLGAPPGLSPRTGPQRRGPPGFDFWGQGTLITVSA
V domain 2: QSVLTQPPSVSGAPGQRVTISCTGSSSNIGAGYDVHWYQQLPGTAPKLLIFDNNNRPSGVPYRFSGSRSGTSASLAITGLQPEDEADYYCQSYDSSLSGRVFGGGTRVTVL
In assay [3], B7 had a Kd of 9.31 nM, a koff of 0.000469 s⁻¹ and a kon of 50400 M⁻¹ s⁻¹. In assay [4], this molecule had a Kd of 48.1 nM, a koff of 0.000544 s⁻¹ and a kon of 11300 M⁻¹ s⁻¹. In addition, the “OD 450 nm” value in assay [2] is 0.886 OD.

B8: AB-009676 (antibody, V domains shown)
VH: QVQLQQWGAGLLKPSETLSLTCAVYGGSFSGYYWSWIRQPPGKGLEWIGEINHSGSTNYNPSLKSRVTISVDTSKNQFSLKLSSVTAADTAVYYCARLSRQWLVRPHIYYFDYWGQGTLVTVSS
VL: DIQMTQSPSTLSASVGDRVTITCRASQSVSSYLNWYQQKPGKAPKLLIYAASSLQSGVPSRFSGSGSGTDFTLTISSLQPEDFATYFCQQSYSTPRTFGQGTKLEIK
B8: in the assay with SARS-CoV-2 S2 protein, the Kd was 0.0456 nM, the koff was 3.12e-07 s⁻¹ and the association rate constant (kon) came to 6840 M⁻¹ s⁻¹.

B9: AB-009363 (antibody, V domains shown)
VH: EVQLLESGGGLVQPGGSLRLSCAASGFTFSSFAMTWIRQAPGKGLEWISAIGGDGGATYYVDSIKGRFTISRDNSKNTVYLHMNGLRVEDTAVYYCATPSPTRYSWGQGTLVTVSS
VL: DIVMTQSPDSLAVSLGERATLNCKSSQSVLYSSNNKNYLAWYQQKPGQPPKLLFYWASTRQSGVPDRFSGSGSGTDFTLTISSLQAEDGAVYYCQQYHKTPHTFGQGTKLEIK
Turning to B9, in assay [1], the Kd came to 192 nM, the koff amounted to 0.0016 s⁻¹ and the kon came to 8330 M⁻¹ s⁻¹. The “OD 450 nm” value in assay [2] was 2.94 OD.

B10: AB-009631 (antibody, V domains shown)
VH: EVQLVESGGGLVQPGGSLRLSCAASGFNFSFYWMSWVRQAPGKGLEWVANIKQDGSEKYYVDSVKGRFTISRDNAKNSLYLQMNSLRAEDTAVYYCARLSGGSWYFDYWGQGTLVTVSS
VL: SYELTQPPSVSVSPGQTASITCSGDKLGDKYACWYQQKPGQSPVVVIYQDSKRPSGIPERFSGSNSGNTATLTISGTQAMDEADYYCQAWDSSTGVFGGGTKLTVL
In the assay with SARS-CoV-2 S2 protein, B10 showed a Kd of 0.0273 nM, a koff of 3.31e-07 s⁻¹ and an on-rate constant (kon) of 12100 M⁻¹ s⁻¹.

B11: AB-009106 (antibody, V domains shown)
VH: QVQLAQSGAEVKRPGASVKVSCKASGFDLTTYGVGWVRQAPGQGLEWMGWISGSSGDTHYAQQFQDRVTMTTDTPTSTAYMELRSLRSDDTAVYYCVRENIAHYGSRTFLVRYYRGMDVWGQGTTVTVAS
VL: QSALTQPASVSGSPGQSITITCTGSSSDIGGFDFVSWYQQYPGKAPKLVISEVTNRPSGVSIRFSGSKSGNTASLTISGLQAEDEADYYCSSYASSYPTTNTRVFGTGTKVTVL
In assay [1], B11 displayed a Kd of 0.0413 nM, a koff of 2.63e-07 s⁻¹ and an association rate constant (kon) of 6370 M⁻¹ s⁻¹. In addition, in assay [2], the “OD 450 nm” value came to 0.1 OD.

B12: AB-009329 (antibody, V domains shown)
VH: QLQLQESGPGLVKPSETLSLTCTVSGGSISSSSYYWGWIRQPPGKGLEWIGSIYYSGSTYYNPSLKSRVTISVDTSKNQFSLKLSSVTAADTAVYYCARHKMGWLQFAGWFDPWGQGTLVTVSS
VL: SSELTQDPAVSVALGQTVRITCQGDSLRSYYASWYQQKPGQAPVLVIYGKNNRPSGIPDRFSGSSSGNTASLTITGAQAEDEADYYCNSRDSSGNHWVFGGGTKLTVL
With B12, the “OD 450 nm” value in assay [2] was 0.235 OD.

B13: AB-009226 (antibody, V domains shown)
VH: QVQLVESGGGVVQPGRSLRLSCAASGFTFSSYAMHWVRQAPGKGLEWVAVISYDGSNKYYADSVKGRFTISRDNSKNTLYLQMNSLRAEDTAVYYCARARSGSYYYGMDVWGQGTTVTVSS
VL: QSALTQPASVSGSPGQSITISCTGTSSDVGGYNYVSWYQQHPGKAPKLMIYEVSNRPSGVSNRFSGSKSGNTASLTISGLQAEDEADYYCSSYTSSSTLYVFGTGTKVTVL
In assay [1], B13 returned a Kd of 27.9 nM, a koff of 0.000783 s⁻¹ and a kon of 28100 M⁻¹ s⁻¹. Also, in assay [2], the “OD 450 nm” value was 2.33 OD.
